Results published in patent US6972319B1, “Pituitary adenylate cyclase activating peptide (PACAP)receptor 3 (R3) agonists and their pharmacological methods of use” (priority 1999, dated 2005).
No end group written: not given here.

T1: PACAP-R3 (human, UniProt P41587 24-438)
T1 sequence (looked up): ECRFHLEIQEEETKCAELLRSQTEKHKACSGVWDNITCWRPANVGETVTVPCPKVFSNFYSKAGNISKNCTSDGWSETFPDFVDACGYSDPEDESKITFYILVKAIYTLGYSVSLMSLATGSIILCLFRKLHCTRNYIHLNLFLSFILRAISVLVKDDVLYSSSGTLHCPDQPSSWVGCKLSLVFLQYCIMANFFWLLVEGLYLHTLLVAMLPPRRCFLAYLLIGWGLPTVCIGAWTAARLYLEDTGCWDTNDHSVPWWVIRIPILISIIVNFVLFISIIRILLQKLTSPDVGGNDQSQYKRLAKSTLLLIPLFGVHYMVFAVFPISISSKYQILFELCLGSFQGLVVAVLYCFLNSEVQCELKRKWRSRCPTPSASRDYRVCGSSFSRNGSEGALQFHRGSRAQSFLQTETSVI


Target: T1, PACAP-R3
Test: cell-based or functional assay

Binder | R3 EC50 [nM] | R3 Selectivity
HSDAVFTENYTKLRKQLAAKKYLNDLKKGGT [R3P3] | 0.75 | 130
HSDGIFTDSYSRYRKQLAAKKYLADVKK [R3P38] | 2.3 | 7
HSDGIFTDSYSRYRKQLAVKKYLAAVKK [R3P39] | 0.5 | 2
HSDGIFTDSYSRYRKQMAVKKYLAAVKK [R3P40] | 0.7 | 2
HSDAVFTDNYTRLRKQVAAKKYLNSIKK [R3P62] | 1.8 | 100
HSDAVFTDNYTRLRKQMAAKKYLNSIKNKR [R3P65] | 0.6 | 130
HSDAVFTDNYTRLRKQVAAKKYLQSIKNKRY [R3P66] | 0.4 | 250
HSDAVFTDNYTRLRKQLAAKKYLNTIKNKRY [R3P67] | 0.3 | 330
HSDAVFTDNYTRLRKQVAAKKYLNSIKNKRY [R3P68] | 0.5 | 
HSDAVFTDNYTRLRKQMAAKKYLQSIKNKRY [R3P69] | 0.5 | 190
HSDAVFTDNYTRLRKQMAAKKYLNTIKNKRY [R3P70] | 0.4 | > 250
HSDAVFTENYTKLRKQLAAKKYLNDLKK [R3P5] | 7 | 30
HSDAVFTDQYTRLRKQMAAKKYLNSIKNKRY [R3P71] | 0.09 | 660
HSDAVFTDQYTRLRKQLAAKKYLNTIKNKRY [R3P72] | 0.16 | > 600
HSDAVFTDNYTRLRKQMAAHKYLNSIKNKRY [R3P73] | 0.3 | 170
HSDAVFTDNYTRLRKQMAAKHYLNSIKNKRY [R3P74] | 0.6 | 150
HSDAVFTDQYTRLRKQLAAHKYLNTIKNKRY [R3P75] | 0.3 | > 500
HSDAVFTDNYTRLRKQVAAKKYLQSIKKKR [R3P77] | 0.4 | 500
HSDAVFTDNYTRLRKQVAAKKYLNSIKKKR [R3P78] | 1.1 | 230
HSDAVFTDNYTRLRKQVAAKKYLNSIKNKRY [R3P79] | 0.5 | 
HSDAVFTDNYTRLRKQVAVKKYLQSIKKKR [R3P80] | 0.44 | 
HSDAVFTDNYTRLRKQMAVKKYLNSIKK-NH2 [R3P8] | 1.4 | 1.5
